The text below walks through data of publication PMC3222833 (Journal of medicinal chemistry, 2011).

Data set [1] concerns the target T1, recombinant human GCPII (rhGCPII) (Homo sapiens, UniProt Q04609). Kind of data set: Saturation kinetics of dipeptide hydrolysis by wild-type rhGCPII. The note with it: ratio of catalytic efficiency. It is filed as biochemical.
A further data set addresses rhGCPII(K699S) mutant (Homo sapiens, UniProt Q04609, K699S). Kind of data set: Saturation kinetics of substrate hydrolysis by mutated GCPII. Type of data set: biochemical. As to conditions: kinetic assay.
A further data set concerns rhGCPII. The note with it: WT rhGCPII, radioenzymatic assay with 3H-NAAG; cited from earlier work.
Data set [2] has as its target T1, recombinant human GCPII (rhGCPII). As to conditions: cited from earlier work.
For data set [3], the system named is CSCC[C@H](NC(=O)[C@H](CC(=O)O)NC(C)=O)C(=O)O. Kind of data set: Saturation kinetics of dipeptide hydrolysis by wild-type rhGCPII. Type of data set: biochemical, human. The note with it: other: wild-type GCPII, Table 2; 37.0 °C.
The test system of data set [4] is CC(=O)N[C@@H](CC(=O)O)C(=O)N[C@@H](C)C(=O)O. The description is as above. The note with it: other: wild-type rhGCPII, Table 1; 37.0 °C. It is filed as biochemical, human.
Data set [5] deals with CCCC[C@H](NC(=O)[C@H](CC(=O)O)NC(C)=O)C(=O)O. Described as above. It is filed as biochemical, human. The note with it: other: wild-type rhGCPII, Table 1; 37.0 °C.
Data set [6] has as its system CCCCCCCC(NC(=O)[C@H](CC(=O)O)NC(C)=O)C(=O)O. Described as above. Type of data set: biochemical, human. The note with it: 37.0 °C.
Data set [7] concerns CCCCCC(NC(=O)[C@H](CC(=O)O)NC(C)=O)C(=O)O. The data set is described as above. It is filed as biochemical, human. The note with it: other: wild-type rhGCPII, Table 1; 37.0 °C.
The subject of data set [8] is CCC[C@H](NC(=O)[C@H](CC(=O)O)NC(C)=O)C(=O)O. The data set is described as above. Type of data set: biochemical, human. As to conditions: other: wild-type rhGCPII, Table 1; 37.0 °C.
Data set [9] has as its system CC[C@H](NC(=O)[C@H](CC(=O)O)NC(C)=O)C(=O)O. The data set is described as above. It is filed as biochemical, human. The note with it: other: wild-type rhGCPII, Table 1; 37.0 °C.
Data set [10] has as its system CCCCCCC(NC(=O)[C@H](CC(=O)O)NC(C)=O)C(=O)O. The data set is described as above. It is filed as biochemical, human. As to conditions: other: wild-type rhGCPII, Table 1; 37.0 °C.
[11] abbreviates: other: wild-type GCPII, Table 2.
Where [12] appears, read: other: wild-type rhGCPII, Table 1.

Where “and” joins values, the source holds several entries; their conditions need not be identical. Identical values can stand only once. Residues, ends and D or L forms follow the SMILES beside them.

One may read the Km as the substrate concentration at which the rate is half of its maximum. Usually kcat stands for the maximal rate divided by the concentration of active sites. One may read the kcat/Km as the second-order rate constant that governs catalysis at low substrate concentration.

T1 sequence (Q04609 44-750): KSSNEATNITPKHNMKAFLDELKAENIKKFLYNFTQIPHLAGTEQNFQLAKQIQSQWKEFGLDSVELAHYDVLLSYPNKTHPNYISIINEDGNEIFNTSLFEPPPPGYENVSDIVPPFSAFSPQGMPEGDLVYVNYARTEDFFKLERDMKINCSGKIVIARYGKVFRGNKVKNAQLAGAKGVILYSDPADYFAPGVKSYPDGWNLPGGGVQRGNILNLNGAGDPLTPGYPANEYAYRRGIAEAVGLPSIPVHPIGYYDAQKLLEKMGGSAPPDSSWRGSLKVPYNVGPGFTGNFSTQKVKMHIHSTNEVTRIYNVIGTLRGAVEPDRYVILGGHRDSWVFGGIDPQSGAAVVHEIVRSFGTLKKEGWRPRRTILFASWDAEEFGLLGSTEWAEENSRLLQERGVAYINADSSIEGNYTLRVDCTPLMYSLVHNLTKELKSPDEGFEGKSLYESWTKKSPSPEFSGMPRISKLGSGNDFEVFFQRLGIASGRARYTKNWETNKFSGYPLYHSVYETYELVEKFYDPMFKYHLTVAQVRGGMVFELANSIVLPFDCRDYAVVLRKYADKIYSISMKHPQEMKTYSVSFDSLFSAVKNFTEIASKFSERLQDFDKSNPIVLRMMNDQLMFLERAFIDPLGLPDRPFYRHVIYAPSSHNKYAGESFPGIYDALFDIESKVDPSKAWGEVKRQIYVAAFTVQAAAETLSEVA
Sequence of rhGCPII(K699S) mutant (Q04609 44-750 K699S): as the sequence (Q04609 44-750) above, with K656S counted along it

Consider `CCCCCCCC(NC(=O)[C@H](CC(=O)O)NC(C)=O)C(=O)O` (some centres unmarked) [8S, Ac-Asp-Ano], for which the “efficiency of rhGCPII hydrolysis compared to Ac-Asp-Ala” value in [1] is “approximately 20 fold”. Moreover, at rhGCPII(K699S) mutant, the “stronger binding to K699S mutant compared to wild-type GCPII” value is “approximately 3 fold”.
On to `CC(=O)N[C@@H](CC(=O)O)C(=O)N[C@@H](CCC(=O)O)C(=O)O` [NAAG, N-acetyl-aspartyl-glutamate] (Ac-Asp-Glu-OH), for which, in the data set on rhGCPII, the Km was 1.2 ± 0.5 µM; the kcat is 1.1 ± 0.2 ^# s^-1 and 1.1 ± 0.2 ^* s^-1.
For the compound `CSCC[C@H](NC(=O)[C@H](CC(=O)O)NC(C)=O)C(=O)O` [NAAM, N-acetyl-aspartyl-methionine] (Ac-Asp-Met-OH), the Km in [2] is 24.8 ± 2.9 µM.
For “recombinant human GCPII (rhGCPII) (Homo sapiens)”, the Km was 7.5 ± 1.6 µM in data set [3]; 85 ± 21 µM in [4]; 19 ± 4 µM in [5]; 10.4 ± 2.5 µM in data set [6] (setting [11]); 10 ± 2 µM in data set [6] (setting [12]); 12 ± 1 µM in data set [7]. The Michaelis-Menten constant (Km) in [8] was determined as 31 ± 12 µM; in data set [9], 29 ± 8 µM; in data set [10], 8 ± 2 µM. Also, the kcat came to 0.32 ± 0.07 s⁻¹ in [3]; 0.23 ± 0.05 s⁻¹ in data set [4]; 0.24 ± 0.01 s⁻¹ in [5]; 0.62 ± 0.10 s⁻¹ in data set [6] (setting [11]); 0.62 ± 0.1 s⁻¹ in data set [6] (setting [12]); 0.44 ± 0.04 s⁻¹ in [7]. For the same compound, the results for the kcat in [8], in data set [9] and in data set [10] were 0.42 ± 0.05 s⁻¹, 0.25 ± 0.03 s⁻¹ and 0.6 ± 0.03 s⁻¹, respectively. In addition, the kcat/Km came to 42700 M⁻¹ s⁻¹ in data set [3]; 2700 M⁻¹ s⁻¹ in data set [4]; 12600 M⁻¹ s⁻¹ in [5]; 59600 M⁻¹ s⁻¹ in [6] (setting [11]); 62000 M⁻¹ s⁻¹ in data set [6] (setting [12]); 36700 M⁻¹ s⁻¹ in data set [7]. The results for the kcat/Km in data set [8], in data set [9] and in [10] were 13500 M⁻¹ s⁻¹, 8600 M⁻¹ s⁻¹ and 75000 M⁻¹ s⁻¹, respectively.
